Laboratory results: publication PMC2755476, “The Sam domain of the lipid phosphatase Ship2 adopts a common model to interact with Arap3-Sam and EphA2-Sam” (BMC Structural Biology, 2009)
One block for each molecule: values may come before it.

Key:
Arap3 Sam (Homo sapiens) = Arap3 Sam (Homo sapiens) (UniProt Q8WWN8); experiment: ITC; settings: cited from earlier work
EphA2 Sam (Homo sapiens) = EphA2 Sam (Homo sapiens) (UniProt P29317); experiment: ITC; settings: cited from earlier work
[1] = target: T1, Sam domain of Arap3 (Arap3-Sam), His-tag cut away with thrombin (human, UniProt Q8WWN8 1-80); experiment: ITC; 25 C, VP-ITC; Shiptide (1 mM) titrated into Arap3-Sam (75 uM, His-tag cut away); 1 x PBS pH 7.7; one binding site model; repeated twice; settings: both partners purified
T1 construct: Arap3, human, residues 1 to 80, encompassing the Sam domain (residues 4 to 68); same construct as m1 after thrombin cleavage of the His-tag; A few vector residues probably remain at the N-terminus after thrombin cleavage; source: E. coli BL21-Gold (DE3), pET15b, purified (nickel column); His-tag cut with thrombin, thrombin removed on a benzamidine column; not shown: His6, N-terminal, cleaved
T1 sequence (looked up): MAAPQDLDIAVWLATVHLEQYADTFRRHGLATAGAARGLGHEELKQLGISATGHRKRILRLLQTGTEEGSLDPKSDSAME

EphA2 Sam (Homo sapiens), sequence (P29317 901-971): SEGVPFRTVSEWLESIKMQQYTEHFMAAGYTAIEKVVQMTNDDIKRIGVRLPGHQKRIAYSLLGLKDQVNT

Molecule: Ship2 Sam (from UniProt O15357)
- Kd (Arap3 Sam (Homo sapiens)): 100 nM
- Kd (EphA2 Sam (Homo sapiens)): 750 nM

- Kd [1]: 40000 ± 7000 nM
- dH [1]: -2.6 ± 0.922 kcal/mol
- stoichiometry N [1]: 0.8 ± 0.1
B1: Ship2-peptide Ac-EGLVHNGWDDLEFLSDITEEDL-NH2 (Shiptide) (peptide)
peptide: Ac-EGLVHNGWDDLEFLSDITEEDL-NH2
notes: region of Ship2-Sam, amino acids from 43 to 64. numbers count on: the Ship2-Sam construct, as in PDB 2K4P; source: synthetic peptide; purchased from the Protein/DNA Facility of the Medical College of Wisconsin
